This note sets out measurements from patent publication US20110236969A1.

For test [1], the target named is GST-fused human V158 FcγRIIIa (extracellular region) (human) (UniProt P08637). Description: SPR, GST-FcγRIIIa V158 on chip. On the technique in general: SPR reads the build-up and loss of mass on a sensor chip optically.
For test [2] the target is unchanged. In words: AlphaScreen competition with biotin-WT AC10.
Test [3] has as its target CD30 fused to the Fc region of IgG1 (R&D Systems) (UniProt P28908). In words: SPR, CD30-Fc on Protein A chip.
The target in test [4] is T1, human CD30 (commercial), conjugated to digoxigenin (human) (UniProt P28908).
T1 sequence (conjugated to digoxigenin (DIG), looked up): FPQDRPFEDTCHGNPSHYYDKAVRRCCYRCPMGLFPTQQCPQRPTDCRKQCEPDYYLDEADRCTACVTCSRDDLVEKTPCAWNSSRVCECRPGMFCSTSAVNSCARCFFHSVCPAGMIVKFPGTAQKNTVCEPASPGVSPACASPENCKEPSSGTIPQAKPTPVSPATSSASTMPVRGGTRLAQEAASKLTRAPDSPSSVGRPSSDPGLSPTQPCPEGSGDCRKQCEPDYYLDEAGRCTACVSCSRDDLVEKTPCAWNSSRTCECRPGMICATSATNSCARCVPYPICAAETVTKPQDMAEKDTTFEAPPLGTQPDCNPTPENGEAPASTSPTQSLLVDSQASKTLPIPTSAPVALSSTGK
In words: AlphaScreen competition with biotin-WT AC10. On the technique in general: In Alpha technology, singlet oxygen from a donor bead excites a nearby acceptor bead.

Chain of GST-fused human V158 FcγRIIIa (extracellular region) (human) (P08637 17-208 F176V): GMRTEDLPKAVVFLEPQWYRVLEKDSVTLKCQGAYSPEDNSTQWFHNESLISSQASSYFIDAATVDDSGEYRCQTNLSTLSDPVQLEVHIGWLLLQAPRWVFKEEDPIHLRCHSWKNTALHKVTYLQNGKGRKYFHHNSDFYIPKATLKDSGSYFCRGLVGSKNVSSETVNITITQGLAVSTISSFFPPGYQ

“WT AC10 antibody H0L0 (H0 AC10 VH, L0 AC10 VL)”: the Kd – broadly, a measure of binding affinity in units of concentration – in test [1] was 18.6 nM. The IC50 (in general, the concentration at which inhibition is half-maximal) in test [2] stood at 87.2 nM.

B1: AC10 H2L3 (H2 AC10 VH, L3 AC10 VL) (antibody, from a related filing, IgG1, V domains shown)
VH: QIQLVESGGGLVKPGGSLRLSCAASGYTFTDYYITWVRQAPGQGLEWMGWIYPGSGNTKYNEKFQGRVTMTVDTSTSTAYMELSSLRSEDTAVYFCANYGNYWFAYWGQGTLVTVSS
VL: DIVLTQSPDSLAVSLGERATINCKASQSVDFDGDSYMNWYQQKPGQPPKVLIYAASNLESGIPARFSGSGSGTDFTLTINSLEAEDAATYYCQQSNEDPWTFGGGTKVEIK
As for B1, in test [3], the Fold KD relative to WT amounted to 0.5 fold and the Kd was 6.75 nM. In test [1], this molecule displayed a Fold KD relative to WT of 5.28 fold and an equilibrium dissociation constant (Kd) of 3.52 nM. Moreover, in test [4], the Fold IC50 relative to WT turned out to be 0.12 fold and the IC50 worked out at 27.2 nM. Moreover, in test [2], the Fold IC50 relative to WT was 0.48 fold and the IC50 amounted to 183 nM.

B2: AC10 H1L2 (H1 AC10 VH, L2 AC10 VL) (antibody, from a related filing, IgG1, V domains shown)
VH: QIQLVQSGPEVKKPGASVKVSCKASGYTFTDYYITWVRQAPGQGLEWMGWIYPGSGNTKYNEKFQGRVTITVDTSASTAYMELSSLRSEDTAVYFCANYGNYWFAYWGQGTLVTVSS
VL: DIVLTQSPSSLSASVGDRVTITCRASQSVDFDGDSYMNWYQQKPGQPPKVLIYAASNLESGIPARFSGSGSGTDFTLTISSLQPEDFATYYCQQSNEDPWTFGGGTKVEIK
In test [3], B2 gave a Fold KD relative to WT of 0.45 fold and a Kd of 7.55 nM. In test [1], this molecule yielded a Fold KD relative to WT of 1.12 fold and a Kd of 16.6 nM. In test [4], this molecule registered a Fold IC50 relative to WT of 0.07 fold and a half-inhibitory concentration (IC50) of 45.3 nM. In test [2], this molecule had a Fold IC50 relative to WT of 0.26 fold and an IC50 of 340 nM.

B3: AC10 H2L2 (H2 AC10 VH, L2 AC10 VL) (antibody, from a related filing, IgG1, V domains shown)
VH: QIQLVESGGGLVKPGGSLRLSCAASGYTFTDYYITWVRQAPGQGLEWMGWIYPGSGNTKYNEKFQGRVTMTVDTSTSTAYMELSSLRSEDTAVYFCANYGNYWFAYWGQGTLVTVSS
VL: DIVLTQSPSSLSASVGDRVTITCRASQSVDFDGDSYMNWYQQKPGQPPKVLIYAASNLESGIPARFSGSGSGTDFTLTISSLQPEDFATYYCQQSNEDPWTFGGGTKVEIK
As for B3, the Kd in test [3] was 5.95 nM; in test [1] it was 4.01 nM. The IC50 in test [4] is 49.2 nM.

B4: AC10 H3L1 (H3 AC10 VH, L1 AC10 VL) (antibody, from a related filing, IgG1, V domains shown)
VH: QIQLVQSGPEVKKPGASVKVSCKASGYTFTDYYITWVRQAPGQGLEWMGWIYPGSGNTKYNEKFQGRFVFSVDTSASTAYLQISSLKAEDTAVYFCANYGNYWFAYWGQGTLVTVSS
VL: DIVLTQSPATLSLSPGERATLSCRASQSVDFDGDSYMNWYQQKPGQPPKVLIYAASNLESGIPARFSGSGSGTDFTLTISSLQPEDFATYYCQQSNEDPWTFGGGTKVEIK
Consider B4, for which the Fold KD relative to WT in test [3] came to 1.39 fold. The values for the Kd in test [3] and in test [1] were 2.44 nM and 17.4 nM, respectively. Moreover, the values for the IC50 in test [4] and in test [2] were 6.09 nM and 209 nM, respectively.

B5: AC10 H2L1 (H2 AC10 VH, L1 AC10 VL) (antibody, from a related filing, IgG1, V domains shown)
VH: QIQLVESGGGLVKPGGSLRLSCAASGYTFTDYYITWVRQAPGQGLEWMGWIYPGSGNTKYNEKFQGRVTMTVDTSTSTAYMELSSLRSEDTAVYFCANYGNYWFAYWGQGTLVTVSS
VL: DIVLTQSPATLSLSPGERATLSCRASQSVDFDGDSYMNWYQQKPGQPPKVLIYAASNLESGIPARFSGSGSGTDFTLTISSLQPEDFATYYCQQSNEDPWTFGGGTKVEIK
As to B5, in test [3], the Fold KD relative to WT was 0.36 fold and the dissociation constant (Kd) turned out to be 9.49 nM. In test [1], this molecule gave a Fold KD relative to WT of 1.25 fold and a Kd of 14.9 nM. In test [4], the Fold IC50 relative to WT came out at 0.06 fold and the IC50 was determined as 55.1 nM. Moreover, in test [2], the Fold IC50 relative to WT was 0.12 fold and the IC50 stood at 751 nM.

B6: AC10 H3L3 (H3 AC10 VH, L3 AC10 VL) (antibody, from a related filing, IgG1, V domains shown)
VH: QIQLVQSGPEVKKPGASVKVSCKASGYTFTDYYITWVRQAPGQGLEWMGWIYPGSGNTKYNEKFQGRFVFSVDTSASTAYLQISSLKAEDTAVYFCANYGNYWFAYWGQGTLVTVSS
VL: DIVLTQSPDSLAVSLGERATINCKASQSVDFDGDSYMNWYQQKPGQPPKVLIYAASNLESGIPARFSGSGSGTDFTLTINSLEAEDAATYYCQQSNEDPWTFGGGTKVEIK
In test [3], B6 returned a Fold KD relative to WT of 1.45 fold and a Kd of 2.33 nM. In test [1], this molecule came in with a Fold KD relative to WT of 3.03 fold and a Kd of 6.13 nM. In test [4], this molecule displayed a Fold IC50 relative to WT of 1.59 fold and an IC50 of 1.99 nM. Besides, in test [2], the Fold IC50 relative to WT amounted to 1.04 fold and the IC50 stood at 83.5 nM.

B7: AC10 H1L3 (H1 AC10 VH, L3 AC10 VL) (antibody, from a related filing, IgG1, V domains shown)
VH: QIQLVQSGPEVKKPGASVKVSCKASGYTFTDYYITWVRQAPGQGLEWMGWIYPGSGNTKYNEKFQGRVTITVDTSASTAYMELSSLRSEDTAVYFCANYGNYWFAYWGQGTLVTVSS
VL: DIVLTQSPDSLAVSLGERATINCKASQSVDFDGDSYMNWYQQKPGQPPKVLIYAASNLESGIPARFSGSGSGTDFTLTINSLEAEDAATYYCQQSNEDPWTFGGGTKVEIK
Consider B7, for which, in test [3], the Fold KD relative to WT turned out to be 0.67 fold and the Kd was 5.09 nM. In test [1], the Fold KD relative to WT is 1.66 fold and the dissociation constant Kd was determined as 11.2 nM. In addition, in test [4], the Fold IC50 relative to WT was 0.18 fold and the concentration for half-maximal inhibition (IC50) was found to be 17.4 nM. In test [2], this molecule showed a Fold IC50 relative to WT of 0.49 fold and a half-maximal inhibitory concentration (IC50) of 178 nM.

B8: AC10 H1L1 (H1 AC10 VH, L1 AC10 VL) (antibody, from a related filing, IgG1, V domains shown)
VH: QIQLVQSGPEVKKPGASVKVSCKASGYTFTDYYITWVRQAPGQGLEWMGWIYPGSGNTKYNEKFQGRVTITVDTSASTAYMELSSLRSEDTAVYFCANYGNYWFAYWGQGTLVTVSS
VL: DIVLTQSPATLSLSPGERATLSCRASQSVDFDGDSYMNWYQQKPGQPPKVLIYAASNLESGIPARFSGSGSGTDFTLTISSLQPEDFATYYCQQSNEDPWTFGGGTKVEIK
As for B8, the Fold KD relative to WT in test [3] is 0.6 fold; in test [1] it was 1.66 fold. The figures for the equilibrium dissociation constant (Kd) in test [3] and in test [1] were 5.63 nM and 11.2 nM, respectively. For the same molecule, the Fold IC50 relative to WT was determined as 0.11 fold in test [4] and 0.39 fold in test [2]. For the same molecule, the results for the IC50 in test [4] and in test [2] were 27.7 nM and 221 nM, respectively.
